Measurements from patent publication US20230374132A1 (Innovent, published 2023).

Key:
Experiment in all cases: BLI, antibody on sensor
[1] = target: T1, cynomolgus monkey CD3 E&D complex protein (Sino Biological Inc., CT032-00323H) (cynomolgus monkey, UniProt Q95LI5 22-117; Q95LI8 22-105)
T1 construct: bought heterodimer
Experimental: (§1) 100 μl SD buffer, various antibodies, human CD3 E&D complex protein (Sino Biological Inc., CT026H0323H), and cynomolgus monkey CD3 E&D complex protein (Sino Biological Inc., CT032-00323H) were added into 96-well black polystyrene semi-quantitative micro-well plate (Greiner, 675076) respectively. Fortebio Octet Red 96 was used for detection, and the sensor position was selected according to the sample position. The setting parameters of the instrument are as follows: operation steps: Baseline, Loading-1 nm, Baseline, Association and Dissociation; the operation time of each step depends on the speed of sample association and dissociation. The rotational speed is 1000 rpm and the temperature is 30° C. ForteBio Octet analysis software was used to analyze KD value.

[2] = target: T2, human CD3 E&D complex protein (Sino Biological Inc., CT026H0323H) (human, UniProt P07766 23-126; P04234 22-105)
T2 construct: bought heterodimer; also called human CD3 protein (CT026H0323H)
Experimental: as §1

[3] = target: T3, human CD3E&G complex (Sino Biological Inc., CT041-H0305H) (human, UniProt P07766 23-126; P09693 23-116)
T3 construct: bought heterodimer; also called human CD3E&G antigen

[4] = target: T2, human CD3 E&D complex protein (Sino …); remark: listed apart in the source

T1 sequence (Q95LI5 22-117, chain 1 of 2): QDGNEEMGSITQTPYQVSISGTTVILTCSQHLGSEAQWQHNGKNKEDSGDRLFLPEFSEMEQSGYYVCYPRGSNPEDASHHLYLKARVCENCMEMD
T1 sequence (Q95LI8 22-105, chain 2 of 2): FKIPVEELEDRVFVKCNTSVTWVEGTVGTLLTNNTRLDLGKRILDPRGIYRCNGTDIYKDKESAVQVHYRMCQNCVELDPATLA
T2 sequence (P07766 23-126, chain 1 of 2): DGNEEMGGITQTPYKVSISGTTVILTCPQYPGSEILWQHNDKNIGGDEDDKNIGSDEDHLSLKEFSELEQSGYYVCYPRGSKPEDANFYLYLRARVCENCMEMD
T2 sequence (P04234 22-105, chain 2 of 2): as the sequence (Q95LI8 22-105, chain 2 of 2) above, with V5I, K15N, V20I, T32S, N33D, N34I, A64T, N74S, L83V counted along it
T3 sequence (P07766 23-126, chain 1 of 2): as the sequence (P07766 23-126, chain 1 of 2) above
T3 sequence (P09693 23-116, chain 2 of 2): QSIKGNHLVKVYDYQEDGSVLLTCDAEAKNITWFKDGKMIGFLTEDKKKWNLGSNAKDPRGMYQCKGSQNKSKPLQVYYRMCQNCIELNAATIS

| binding result [1] | binding result [2] | Kd [3] | koff [3] | kon [3] | Kd [4] | koff [4] | kon [4] | Binder |
| --- | --- | --- | --- | --- | --- | --- | --- | --- |
| no binding | no binding | – | – | – | – | – | – | hzsp34.8 (antibody, human IgG1, lambda, L234A L235A, V domains shown, IgG1 L234A L235A, lambda) VH: EVQLVESGGGLVQPGGSLKLSCAASGFTFNTYAMNWVRQASGKGLEWVGRIRSKYNNYATYYADSVKDRFTISRDDSKSTLYLQMNSLKTEDTAVYYCARHGNFGNSYVSWFAYWGQGTTVTVSS VL: QAVVTQEPSLTVSPGGTVTLTCRSSTGAVTTSNYANWFQQKPGQAPRTLIYGTNKRAPWTPARFSGSLLGGKAALTLLGAQPEDEAEYYCALWYSNLWVFGQGTKLTVLG |
| – | – | 10.3 nM | 0.00237 s⁻¹ | 230000 M⁻¹ s⁻¹ | 1.54 nM | 0.000365 s⁻¹ | 236000 M⁻¹ s⁻¹ | hzsp34.106 (antibody, human IgG1, lambda, L234A L235A, V domains shown, CDR mutant of hzsp34.24; IgG1 L234A L235A, lambda) VH: EVQLVESGGGLVQPGGSLKLSCAASGFTFNTYAMNWVRQASGKGLEWVGRIRSKYNNYATYYADSVKDRFTISRDDSKSTLYLQMNSLKTEDTAVYYCARHGNFGQSYVSWFAYWGQGTTVTVSS VL: QAVVTQEPSLTVSPGGTVTLTCRSSTGAVTTSGYANWVQQKPGQAPRGLIGGTNKRAPGVPARFSGSLLGDKAALTLLGAQPEDEAEYYCALWYSNLWVFGQGTKLTVLG |
| – | – | 59.8 nM | 0.00446 s⁻¹ | 74600 M⁻¹ s⁻¹ | 8.44 nM | 0.00141 s⁻¹ | 167000 M⁻¹ s⁻¹ | hzsp34.107 (antibody, human IgG1, lambda, L234A L235A, V domains shown, CDR mutant of hzsp34.24; IgG1 L234A L235A, lambda) VH: EVQLVESGGGLVQPGGSLKLSCAASGFTFNTYAMNWVRQASGKGLEWVGRIRSKYNNYATYYADSVKDRFTISRDDSKSTLYLQMNSLKTEDTAVYYCARHGNFGQSYVSWFAYWGQGTTVTVSS VL: QAVVTQEPSLTVSPGGTVTLTCRSSTGAVTTSNYANWVQQKPGQAPRGLIGGTNKRAPGVPARFSGSLLGDKAALTLLGAQPEDEAEYYCALAYSNLWVFGQGTKLTVLG |
| – | – | 6.69 nM | 0.00134 s⁻¹ | 200000 M⁻¹ s⁻¹ | 1.08 nM | 0.000282 s⁻¹ | 262000 M⁻¹ s⁻¹ | hzsp34.114 (antibody, human IgG1, lambda, L234A L235A, V domains shown, CDR mutant of hzsp34.24; IgG1 L234A L235A, lambda) VH: EVQLVESGGGLVQPGGSLKLSCAASGFTFNTYAMNWVRQASGKGLEWVGRIRSKYNNYATYYADSVKDRFTISRDDSKSTLYLQMNSLKTEDTAVYYCARHGNFGQSYVSWFAYWGQGTTVTVSS VL: QAVVTQEPSLTVSPGGTVTLTCRSSTGAVTTSNYANWVQQKPGQAPRGLIGGTNKRAPGVPARFSGSLLGDKAALTLLGAQPEDEAEYYCALWYRGLWVFGQGTKLTVLG |
| no binding | no binding | – | – | – | – | – | – | hzsp34.10 (antibody, human IgG1, lambda, L234A L235A, V domains shown, IgG1 L234A L235A, lambda) VH: EVQLVESGGGLVQPGGSLKLSCAASGFTFNTYAMNWVRQASGKGLEWVARIRSKYNNYATYYADSVKDRFTISRDDSKSTLYLQMNSLKTEDTAVYYCARHGNFGQSYVSWFAYWGQGTTVTVSS VL: QAVVTQEPSLTVSPGGTVTLTCRSSTGAVTTSNYANWFQQKPGQAPRTLIYGTNKRAPWTPARFSGSLLGGKAALTLLGAQPEDEAEYYCALWYSNLWVFGQGTKLTVLG |
| no binding | no binding | – | – | – | – | – | – | hzsp34.9 (antibody, human IgG1, lambda, L234A L235A, V domains shown, IgG1 L234A L235A, lambda) VH: EVQLVESGGGLVQPGGSLKLSCAASGFTFNTYAMNWVRQASGKGLEWVGRIRSKYNNYATYYADSVKDRFTISRDDSKSTLYLQMNSLKTEDTAVYYCARHGNFGQSYVSWFAYWGQGTTVTVSS VL: QAVVTQEPSLTVSPGGTVTLTCRSSTGAVTTSNYANWFQQKPGQAPRTLIYGTNKRAPWTPARFSGSLLGGKAALTLLGAQPEDEAEYYCALWYSNLWVFGQGTKLTVLG |
| – | – | 8.54 nM | 0.00198 s⁻¹ | 231000 M⁻¹ s⁻¹ | 1.93 nM | 0.000542 s⁻¹ | 281000 M⁻¹ s⁻¹ | hzsp34.104 (antibody, human IgG1, lambda, L234A L235A, V domains shown, CDR mutant of hzsp34.24; IgG1 L234A L235A, lambda) VH: EVQLVESGGGLVQPGGSLKLSCAASGFTFNTYAMNWVRQASGKGLEWVGRIRSKYNNYATYYADSVKDRFTISRDDSKSTLYLQMNSLKTEDTAVYYCARHGNFGQSYVSWFAYWGQGTTVTVSS VL: QAVVTQEPSLTVSPGGTVTLTCRSSTGAVTGSNYANWVQQKPGQAPRGLIGGTNKRAPGVPARFSGSLLGDKAALTLLGAQPEDEAEYYCALWYSNLWVFGQGTKLTVLG |
| – | – | 7.7 nM | 0.00184 s⁻¹ | 238000 M⁻¹ s⁻¹ | 1.26 nM | 0.000331 s⁻¹ | 264000 M⁻¹ s⁻¹ | hzsp34.115 (antibody, human IgG1, lambda, L234A L235A, V domains shown, CDR mutant of hzsp34.24; IgG1 L234A L235A, lambda) VH: EVQLVESGGGLVQPGGSLKLSCAASGFTFNTYAMNWVRQASGKGLEWVGRIRSKYNNYATYYADSVKDRFTISRDDSKSTLYLQMNSLKTEDTAVYYCARHGNFGQSYVSWFAYWGQGTTVTVSS VL: QAVVTQEPSLTVSPGGTVTLTCRSSTGAVTTSNYANWVQQKPGQAPRGLIGGTNSRAPGVPARFSGSLLGDKAALTLLGAQPEDEAEYYCALWYSNLWVFGQGTKLTVLG |
| – | – | 9.02 nM | 0.0021 s⁻¹ | 233000 M⁻¹ s⁻¹ | 1.15 nM | 0.000258 s⁻¹ | 225000 M⁻¹ s⁻¹ | hzsp34.109 (antibody, human IgG1, lambda, L234A L235A, V domains shown, CDR mutant of hzsp34.24; IgG1 L234A L235A, lambda) VH: EVQLVESGGGLVQPGGSLKLSCAASGFTFNTYAMNWVRQASGKGLEWVGRIRSKYNNYATYYADSVKDRFTISRDDSKSTLYLQMNSLKTEDTAVYYCARHGNFGQSYVSWFAYWGQGTTVTVSS VL: QAVVTQEPSLTVSPGGTVTLTCRSSTGAVTTSNYANWVQQKPGQAPRGLIGGTNKRAPGVPARFSGSLLGDKAALTLLGAQPEDEAEYYCALWYRNLWVFGQGTKLTVLG |
| – | – | 9.5 nM | 0.00191 s⁻¹ | 201000 M⁻¹ s⁻¹ | 1.94 nM | 0.000454 s⁻¹ | 235000 M⁻¹ s⁻¹ | hzsp34.111 (antibody, human IgG1, lambda, L234A L235A, V domains shown, CDR mutant of hzsp34.24; IgG1 L234A L235A, lambda) VH: EVQLVESGGGLVQPGGSLKLSCAASGFTFNTYAMNWVRQASGKGLEWVGRIRSKYNNYATYYADSVKDRFTISRDDSKSTLYLQMNSLKTEDTAVYYCARHGNFGQSYVSWFAYWGQGTTVTVSS VL: QAVVTQEPSLTVSPGGTVTLTCRSSTGAVGGSNYANWVQQKPGQAPRGLIGGTNKRAPGVPARFSGSLLGDKAALTLLGAQPEDEAEYYCALWYSNLWVFGQGTKLTVLG |
| – | – | 3.71 nM | 0.000811 s⁻¹ | 219000 M⁻¹ s⁻¹ | 1.02 nM | 0.0002 s⁻¹ | 196000 M⁻¹ s⁻¹ | hzsp34.113 (antibody, human IgG1, lambda, L234A L235A, V domains shown, CDR mutant of hzsp34.24; IgG1 L234A L235A, lambda) VH: EVQLVESGGGLVQPGGSLKLSCAASGFTFNTYAMNWVRQASGKGLEWVGRIRSKYNNYATYYADSVKDRFTISRDDSKSTLYLQMNSLKTEDTAVYYCARHGNFGQSYVSWFAYWGQGTTVTVSS VL: QAVVTQEPSLTVSPGGTVTLTCRSSTGAVTTSNYANWVQQKPGQAPRGLIGGTNKRAPGVPARFSGSLLGDKAALTLLGAQPEDEAEYYCALAASNLWVFGQGTKLTVLG |
| – | – | 8.49 nM | 0.00188 s⁻¹ | 222000 M⁻¹ s⁻¹ | 0.951 nM | 0.0002 s⁻¹ | 210000 M⁻¹ s⁻¹ | hzsp34.110 (antibody, human IgG1, lambda, L234A L235A, V domains shown, CDR mutant of hzsp34.24; IgG1 L234A L235A, lambda) VH: EVQLVESGGGLVQPGGSLKLSCAASGFTFNTYAMNWVRQASGKGLEWVGRIRSKYNNYATYYADSVKDRFTISRDDSKSTLYLQMNSLKTEDTAVYYCARHGNFGQSYVSWFAYWGQGTTVTVSS VL: QAVVTQEPSLTVSPGGTVTLTCRSSTGAVTTSNYANWVQQKPGQAPRGLIGGTNKRAPGVPARFSGSLLGDKAALTLLGAQPEDEAEYYCALWYSGLWVFGQGTKLTVLG |
| – | – | 10.6 nM | 0.0021 s⁻¹ | 199000 M⁻¹ s⁻¹ | 1.3 nM | 0.000307 s⁻¹ | 235000 M⁻¹ s⁻¹ | hzsp34.105 (antibody, human IgG1, lambda, L234A L235A, V domains shown, CDR mutant of hzsp34.24; IgG1 L234A L235A, lambda) VH: EVQLVESGGGLVQPGGSLKLSCAASGFTFNTYAMNWVRQASGKGLEWVGRIRSKYNNYATYYADSVKDRFTISRDDSKSTLYLQMNSLKTEDTAVYYCARHGNFGQSYVSWFAYWGQGTTVTVSS VL: QAVVTQEPSLTVSPGGTVTLTCRSSTGAVTTRNYANWVQQKPGQAPRGLIGGTNKRAPGVPARFSGSLLGDKAALTLLGAQPEDEAEYYCALWYSNLWVFGQGTKLTVLG |
| – | – | 7.19 nM | 0.00146 s⁻¹ | 203000 M⁻¹ s⁻¹ | 0.965 nM | 0.0002 s⁻¹ | 207000 M⁻¹ s⁻¹ | hzsp34.108 (antibody, human IgG1, lambda, L234A L235A, V domains shown, CDR mutant of hzsp34.24; IgG1 L234A L235A, lambda) VH: EVQLVESGGGLVQPGGSLKLSCAASGFTFNTYAMNWVRQASGKGLEWVGRIRSKYNNYATYYADSVKDRFTISRDDSKSTLYLQMNSLKTEDTAVYYCARHGNFGQSYVSWFAYWGQGTTVTVSS VL: QAVVTQEPSLTVSPGGTVTLTCRSSTGAVTTSNYANWVQQKPGQAPRGLIGGTNKRAPGVPARFSGSLLGDKAALTLLGAQPEDEAEYYCALWASNLWVFGQGTKLTVLG |
| – | – | 6.6 nM | 0.00155 s⁻¹ | 235000 M⁻¹ s⁻¹ | 0.722 nM | 0.000204 s⁻¹ | 282000 M⁻¹ s⁻¹ | hzsp34.112 (antibody, human IgG1, lambda, L234A L235A, V domains shown, CDR mutant of hzsp34.24; IgG1 L234A L235A, lambda) VH: EVQLVESGGGLVQPGGSLKLSCAASGFTFNTYAMNWVRQASGKGLEWVGRIRSKYNNYATYYADSVKDRFTISRDDSKSTLYLQMNSLKTEDTAVYYCARHGNFGQSYVSWFAYWGQGTTVTVSS VL: QAVVTQEPSLTVSPGGTVTLTCRSSTGAVTTRGYANWVQQKPGQAPRGLIGGTNKRAPGVPARFSGSLLGDKAALTLLGAQPEDEAEYYCALWYSNLWVFGQGTKLTVLG |
